Test results taken from paper PMC12212259, “Evaluation of AlphaFold modeling for elucidation of nanobody–peptide epitope interactions” (The Journal of Biological Chemistry, 2025).
Each block holds one binder with its values, some of them ahead of it.

Key:
127-tag peptide = target: T1, 127-tag peptide (Homo sapiens CXCR2 (synthetic peptide)); test: SPR; biotinylated Nb (1 uM) captured on a streptavidin (SA) chip to about 2000 RU; peptide as analyte, 50 ul/min, 60 s contact, 120 s dissociation; 1X PBS pH 7.4 plus 0.05% P20; Biacore T200; 1:1 kinetics binding model, local fittings; conditions: both partners purified
T1 construct: numbers count on: the peptide; the printed residues Ser1', Phe2', Glu3', Phe5', Trp6', Lys7', Asp10' fit this; source: synthetic peptide
T1 chain: SFEDFWKGED

6E-WT peptide [1] = target: T2, 6E-WT peptide (Homo sapiens UBE2J1 (UBC6e; synthetic …, UniProt Q9Y385); test: as above; conditions: both partners purified
T2 construct: Leu at position 9; numbers count on: the peptide; the printed E5 and L9 fit this; also called 6E-L9 (WT); 6E peptide; source: synthetic peptide
T2 chain: QADQEAKELARQIS

6E-WT peptide [2] = target: T2, 6E-WT peptide; test: flow cytometry on cells; competition: HEK293 cells stably expressing A2AR-Nb6E-ALFA with unlabeled variant 6E peptides (10–0.01 uM) and 10 nM FAM-6E-C14 for 30 m in 2% BSA in PBS; antifluorescein antibody-AF647; median fluorescence intensity; conditions: one partner purified

Kd (127-tag peptide): 0.014 µM
B1: Nb127–biotin (VHH)
VHH: EVQLVESGGGLVQAGESLRLSCAASGSTFDFKVMGWYRQPPGKQREGVAAIRLSGNMHYAESVKGRFAISKANAKNTVYLQMNSLRPEDTAVYYCKVNIRGQDYWGQGTQVTVSS
notes: as the chain of m1; Sortagging probably removes the His6 tag; also called biotinylated Nb127; source: bacterial expression (pET26b, pelB), purified; labelled by sortagging (Sortase 5M), Ni-NTA and PD10

binding result (6E-WT peptide [1]): binds
B2: Nb6E-biotin (VHH)
VHH: QVQLQESGGGLVQPGGSLRLSCAASGFVFENSAMAWYRQAPGKERELIAVIGTTFIKLAESVKGRFTISRDNAKSTVYLQMNNLKPEDTAVYYCSKSGAYWGQGTQVTVSS
notes: as the chain of m13; Sortagging probably removes the His6 tag; also called biotinylated Nb6E; source: bacterial expression (pET26b, pelB), purified; labelled by sortagging (Sortase 5M), Ni-NTA and PD10

binding result (6E-WT peptide [2]): binds
B3: A2AR-Nb6E-ALFA (VHH)
VHH: B2 VHH
notes: as the chain of m13 (Nb6E); also called cell surface protein fused with Nb6E; source: HEK293 cells, stably expressing, on cells
